These results are taken from US20140193378A1 (UNIVERSITY OF MIAMI, published 2014).

B1: P-22326 [N-Me-Tyr^1, D-Ala^2, Gln^8, Orn^12, Abu^15, Orn^21, Nle^27, Asp^28, Apa^30]hGHRH(1-30)NH2 (peptide)
peptide: [NMeY][dA]DAIFTQSYR[Orn]VL[Abu]QLSAR[Orn]LLQDI[Nle]DR[Ava]-NH2
modifications: N-terminus assumed
SMILES: CCCC[C@H](NC(=O)[C@@H](NC(=O)[C@H](CC(=O)O)NC(=O)[C@H](CCC(N)=O)NC(=O)[C@H](CC(C)C)NC(=O)[C@H](CC(C)C)NC(=O)[C@H](CCCN)NC(=O)[C@H](CCCNC(=N)N)NC(=O)[C@H](C)NC(=O)[C@H](CO)NC(=O)[C@H](CC(C)C)NC(=O)[C@H](CCC(N)=O)NC(=O)[C@H](CC)NC(=O)[C@H](CC(C)C)NC(=O)[C@@H](NC(=O)[C@H](CCCN)NC(=O)[C@H](CCCNC(=N)N)NC(=O)[C@H](Cc1ccc(O)cc1)NC(=O)[C@H](CO)NC(=O)[C@H](CCC(N)=O)NC(=O)[C@@H](NC(=O)[C@H](Cc1ccccc1)NC(=O)[C@@H](NC(=O)[C@H](C)NC(=O)[C@H](CC(=O)O)NC(=O)[C@@H](C)NC(=O)[C@H](Cc1ccc(O)cc1)NC)[C@@H](C)CC)[C@@H](C)O)C(C)C)[C@@H](C)CC)C(=O)N[C@@H](CC(=O)O)C(=O)N[C@@H](CCCNC(=N)N)C(=O)NCCCCC(N)=O
notes: also called Peptide 22326
B2: P-25501 [N-Me-Tyr^1, D-Ala^2, Orn^12, Abu^15, Orn^21, Nle^27, Gab^30]hGHRH(1-30)NH2 (peptide)
peptide: [NMeY][dA]DAIFTNSYR[Orn]VL[Abu]QLSAR[Orn]LLQDI[Nle]SR[GABA]-NH2
modifications: N-terminus assumed
SMILES: CCCC[C@H](NC(=O)[C@@H](NC(=O)[C@H](CC(=O)O)NC(=O)[C@H](CCC(N)=O)NC(=O)[C@H](CC(C)C)NC(=O)[C@H](CC(C)C)NC(=O)[C@H](CCCN)NC(=O)[C@H](CCCNC(=N)N)NC(=O)[C@H](C)NC(=O)[C@H](CO)NC(=O)[C@H](CC(C)C)NC(=O)[C@H](CCC(N)=O)NC(=O)[C@H](CC)NC(=O)[C@H](CC(C)C)NC(=O)[C@@H](NC(=O)[C@H](CCCN)NC(=O)[C@H](CCCNC(=N)N)NC(=O)[C@H](Cc1ccc(O)cc1)NC(=O)[C@H](CO)NC(=O)[C@H](CC(N)=O)NC(=O)[C@@H](NC(=O)[C@H](Cc1ccccc1)NC(=O)[C@@H](NC(=O)[C@H](C)NC(=O)[C@H](CC(=O)O)NC(=O)[C@@H](C)NC(=O)[C@H](Cc1ccc(O)cc1)NC)[C@@H](C)CC)[C@@H](C)O)C(C)C)[C@@H](C)CC)C(=O)N[C@@H](CO)C(=O)N[C@@H](CCCNC(=N)N)C(=O)NCCCC(N)=O
notes: also called Peptide 25501
B3: P-27401 [Dat^1, D-Ala^2, Gln^8, Orn^12, Abu^15, Orn^21, Nle^27, Asp^28, D-Arg^29]hGHRH(1-29)NH-CH3 (peptide)
peptide: [Desaminotyrosyl][dA]DAIFTQSYR[Orn]VL[Abu]QLSAR[Orn]LLQDI[Nle]D[dR]-NHMe
SMILES: CCCC[C@H](NC(=O)[C@@H](NC(=O)[C@H](CC(=O)O)NC(=O)[C@H](CCC(N)=O)NC(=O)[C@H](CC(C)C)NC(=O)[C@H](CC(C)C)NC(=O)[C@H](CCCN)NC(=O)[C@H](CCCNC(=N)N)NC(=O)[C@H](C)NC(=O)[C@H](CO)NC(=O)[C@H](CC(C)C)NC(=O)[C@H](CCC(N)=O)NC(=O)[C@H](CC)NC(=O)[C@H](CC(C)C)NC(=O)[C@@H](NC(=O)[C@H](CCCN)NC(=O)[C@H](CCCNC(=N)N)NC(=O)[C@H](Cc1ccc(O)cc1)NC(=O)[C@H](CO)NC(=O)[C@H](CCC(N)=O)NC(=O)[C@@H](NC(=O)[C@H](Cc1ccccc1)NC(=O)[C@@H](NC(=O)[C@H](C)NC(=O)[C@H](CC(=O)O)NC(=O)[C@@H](C)NC(=O)CCc1ccc(O)cc1)[C@@H](C)CC)[C@@H](C)O)C(C)C)[C@@H](C)CC)C(=O)N[C@@H](CC(=O)O)C(=O)N[C@H](CCCNC(=N)N)C(=O)NC
B4: P-27408 [Dat^1, D-Ala^2, Gln^8, Orn^12, Abu^15, Orn^21, Nle^27, Asp^28]hGHRH(1-29)NH-CH3 (peptide)
peptide: [Desaminotyrosyl][dA]DAIFTQSYR[Orn]VL[Abu]QLSAR[Orn]LLQDI[Nle]DR-NHMe
SMILES: CCCC[C@H](NC(=O)[C@@H](NC(=O)[C@H](CC(=O)O)NC(=O)[C@H](CCC(N)=O)NC(=O)[C@H](CC(C)C)NC(=O)[C@H](CC(C)C)NC(=O)[C@H](CCCN)NC(=O)[C@H](CCCNC(=N)N)NC(=O)[C@H](C)NC(=O)[C@H](CO)NC(=O)[C@H](CC(C)C)NC(=O)[C@H](CCC(N)=O)NC(=O)[C@H](CC)NC(=O)[C@H](CC(C)C)NC(=O)[C@@H](NC(=O)[C@H](CCCN)NC(=O)[C@H](CCCNC(=N)N)NC(=O)[C@H](Cc1ccc(O)cc1)NC(=O)[C@H](CO)NC(=O)[C@H](CCC(N)=O)NC(=O)[C@@H](NC(=O)[C@H](Cc1ccccc1)NC(=O)[C@@H](NC(=O)[C@H](C)NC(=O)[C@H](CC(=O)O)NC(=O)[C@@H](C)NC(=O)CCc1ccc(O)cc1)[C@@H](C)CC)[C@@H](C)O)C(C)C)[C@@H](C)CC)C(=O)N[C@@H](CC(=O)O)C(=O)N[C@@H](CCCNC(=N)N)C(=O)NC
notes: also called Peptide 27408
B5: P-20357 [Dat^1, D-Ala^2, N-Me-Ala^8, Orn^12, Abu^15, Orn^21, Nle^27, Asp^28, Agm^29]hGHRH(1-29)NH2 (peptide)
peptide: [Desaminotyrosyl][dA]DAIFT[NMeA]SYR[Orn]VL[Abu]QLSAR[Orn]LLQDI[Nle]D[Agmatine]
SMILES: CCCC[C@H](NC(=O)[C@@H](NC(=O)[C@H](CC(=O)O)NC(=O)[C@H](CCC(N)=O)NC(=O)[C@H](CC(C)C)NC(=O)[C@H](CC(C)C)NC(=O)[C@H](CCCN)NC(=O)[C@H](CCCNC(=N)N)NC(=O)[C@H](C)NC(=O)[C@H](CO)NC(=O)[C@H](CC(C)C)NC(=O)[C@H](CCC(N)=O)NC(=O)[C@H](CC)NC(=O)[C@H](CC(C)C)NC(=O)[C@@H](NC(=O)[C@H](CCCN)NC(=O)[C@H](CCCNC(=N)N)NC(=O)[C@H](Cc1ccc(O)cc1)NC(=O)[C@H](CO)NC(=O)[C@H](C)N(C)C(=O)[C@@H](NC(=O)[C@H](Cc1ccccc1)NC(=O)[C@@H](NC(=O)[C@H](C)NC(=O)[C@H](CC(=O)O)NC(=O)[C@@H](C)NC(=O)CCc1ccc(O)cc1)[C@@H](C)CC)[C@@H](C)O)C(C)C)[C@@H](C)CC)C(=O)N[C@@H](CC(=O)O)C(=O)NCCCCNC(=N)N
notes: also called Peptide 20357
B6: P-27400 [Dat^1, D-Ala^2, Orn^12, Abu^15, Orn^21, Nle^27, Asp^28]hGHRH(1-29)NH-CH3 (peptide)
peptide: [Desaminotyrosyl][dA]DAIFTNSYR[Orn]VL[Abu]QLSAR[Orn]LLQDI[Nle]DR-NHMe
SMILES: CCCC[C@H](NC(=O)[C@@H](NC(=O)[C@H](CC(=O)O)NC(=O)[C@H](CCC(N)=O)NC(=O)[C@H](CC(C)C)NC(=O)[C@H](CC(C)C)NC(=O)[C@H](CCCN)NC(=O)[C@H](CCCNC(=N)N)NC(=O)[C@H](C)NC(=O)[C@H](CO)NC(=O)[C@H](CC(C)C)NC(=O)[C@H](CCC(N)=O)NC(=O)[C@H](CC)NC(=O)[C@H](CC(C)C)NC(=O)[C@@H](NC(=O)[C@H](CCCN)NC(=O)[C@H](CCCNC(=N)N)NC(=O)[C@H](Cc1ccc(O)cc1)NC(=O)[C@H](CO)NC(=O)[C@H](CC(N)=O)NC(=O)[C@@H](NC(=O)[C@H](Cc1ccccc1)NC(=O)[C@@H](NC(=O)[C@H](C)NC(=O)[C@H](CC(=O)O)NC(=O)[C@@H](C)NC(=O)CCc1ccc(O)cc1)[C@@H](C)CC)[C@@H](C)O)C(C)C)[C@@H](C)CC)C(=O)N[C@@H](CC(=O)O)C(=O)N[C@@H](CCCNC(=N)N)C(=O)NC

Non-standard residues stand in square brackets, D forms with d. No end group written: not given here. *: point of attachment. Phe(F5) = N[C@@H](Cc1c(F)c(F)c(F)c(F)c1F)C(=O)O; Desaminotyrosyl = O=C(CCc1ccc(O)cc1)*; NMeY = CN[C@@H](Cc1ccc(O)cc1)C(=O)O; Agmatine = N=C(N)NCCCCN*; NMeA = CN[C@@H](C)C(=O)O; Nle = CCCC[C@H](N)C(=O)O; Orn = NCCC[C@H](N)C(=O)O; Abu = CC[C@H](N)C(=O)O; Ava = NCCCCC(=O)O; GABA = NCCCC(=O)O

The test has as its target T1, human GHRH receptor (human pituitary membrane homogenates) (human, UniProt Q02643 23-423).
T1 construct: whole, on cells; Native receptor in human pituitary membrane homogenates, not on intact cells; also called hGHRH receptor
T1 sequence (looked up): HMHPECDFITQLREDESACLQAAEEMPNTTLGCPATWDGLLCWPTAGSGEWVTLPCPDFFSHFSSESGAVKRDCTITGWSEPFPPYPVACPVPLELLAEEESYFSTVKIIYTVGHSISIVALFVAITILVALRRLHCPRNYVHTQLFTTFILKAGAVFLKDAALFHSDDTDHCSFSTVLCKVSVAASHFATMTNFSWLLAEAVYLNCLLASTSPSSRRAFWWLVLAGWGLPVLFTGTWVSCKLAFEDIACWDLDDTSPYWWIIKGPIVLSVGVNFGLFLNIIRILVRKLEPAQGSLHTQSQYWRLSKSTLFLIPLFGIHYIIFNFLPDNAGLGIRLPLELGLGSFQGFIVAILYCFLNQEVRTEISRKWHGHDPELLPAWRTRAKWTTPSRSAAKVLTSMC
As to the kind of experiment: radioligand competition vs 125I-JV-1-42 (0.2 nM), human pituitary membranes. An excerpt: Normal human pituitaries were purchased from the National Hormone and Peptide Program (A. F. Parlow, Los Angeles, County Harbor-UCLA Medical Center, Torrance, Calif.).
(Displacement assays read how much labelled ligand stays bound in the presence of the test substance.)
As to B1, the “Relative affinity (Binding potency) vs JI-38” value (“Relative affinity” below) was found to be 6.12 fold.

With B2, the “Relative affinity” value was found to be 4.07 fold. In the case of [NMeY][dA]DAI[Phe(F5)]TNSYR[Orn]VL[Abu]QLSAR[Orn]LLQDI[Nle]SR[GABA]-NHMe (also called Peptide 27414) [P-27414 [N-Me-Tyr^1, D-Ala^2, Fpa5^6, Orn^12, Abu^15, Orn^21, Nle^27, Gab^30]hGHRH(1-30)NH-CH3], the “Relative affinity” value worked out at 2.79 fold. For B3, the “Relative affinity” value came to 1.59 fold. For [NMeY][dA]DAIFTQSYR[Orn]VL[Abu]QLSAR[Orn]LLQDI[Nle]DR-NHEt (also called Peptide 28420) [P-28420 [N-Me-Tyr^1, D-Ala^2, Gln^8, Orn^12, Abu^15, Orn^21, Nle^27, Asp^28]hGHRH(1-29)NH-CH2-CH3], the “Relative affinity” value was 8.37 fold. On to B4, for which the “Relative affinity” value is 7.91 fold. [NMeY][dA]DAIFTQSYR[Orn]VL[Abu]QLSAR[Orn]LLQDI[Nle]DR-NHMe [P-27403 [N-Me-Tyr^1, D-Ala^2, Gln^8, Orn^12, Abu^15, Orn^21, Nle^27, Asp^28]hGHRH(1-29)NH-CH3]: the “Relative affinity” value came to 27.2 fold. As for B5, the “Relative affinity” value was determined as 5.06 fold.

With [NMeY][dA]DAI[Phe(F5)]TNSYR[Orn]VL[Abu]QLSAR[Orn]LLQDI[Nle]DR-NHMe [P-27404 [N-Me-Tyr^1, D-Ala^2, Fpa5^6, Orn^12, Abu^15, Orn^21, Nle^27, Asp^28]hGHRH(1-29)NH-CH3], the “Relative affinity” value came out at 5 fold. As for [NMeY][dA]DAI[Phe(F5)]TNSYR[Orn]VL[Abu]QLSAR[Orn]LLQDI[Nle]D[Agmatine] (also called Peptide 20359) [P-20359 [N-Me-Tyr^1, D-Ala^2, Fpa5^6, Orn^12, Abu^15, Orn^21, Nle^27, Asp^28, Agm^29]hGHRH(1-29)NH2], the “Relative affinity” value came out at 1.43 fold. For the molecule [NMeY][dA]DAIFTNSYR[Orn]VL[Abu]QLSAR[Orn]LLQDI[Nle]DR-NHMe (also called Peptide 27409; MR-409) [P-27409 [N-Me-Tyr^1, D-Ala^2, Orn^12, Abu^15, Orn^21, Nle^27, Asp^28]hGHRH(1-29)NH-CH3], the “Relative affinity” value worked out at 4.1 fold. Consider [NMeY][dA]DAIFTNSYR[Orn]VL[Abu]QLSAR[Orn]LLQDI[Nle]DR-NHEt (also called Peptide 28421) [P-28421 [N-Me-Tyr^1, D-Ala^2, Orn^12, Abu^15, Orn^21, Nle^27, Asp^28]hGHRH(1-29)NH-CH2-CH3], for which the “Relative affinity” value is 2.96 fold. As to [NMeY][dA]DAIFTTSYR[Orn]VL[Abu]QLSAR[Orn]LLQDI[Nle]DR-NHMe (also called Peptide 27410) [P-27410 [N-Me-Tyr^1, D-Ala^2, Thr^8, Orn^12, Abu^15, Orn^21, Nle^27, Asp^28]hGHRH(1-29)NH-CH3], the “Relative affinity” value came out at 5.24 fold. As to B6, the “Relative affinity” value is 1.3 fold. Consider [NMeY][dA]DAIFTNSYR[Orn]VL[Abu]QLSAR[Orn]LLQDI[Nle]D[Agmatine] (also called Peptide 20367) [P-20367 [N-Me-Tyr^1, D-Ala^2, Orn^12, Abu^15, Orn^21, Nle^27, Asp^28, Agm^29]hGHRH(1-29)NH2], for which the “Relative affinity” value came out at 2.56 fold.
